According to patent CN111110862A:
Values belong to the binder of their own block, whether it stands above or below them.

Columns and labels:
[1] = molecular target: 人CLDN18.2(hCLDN18.2) (human) (UniProt P56856); assay: cell ELISA on fixed hCLDN18.2+cell
[2] = molecular target: 人CLDN18.2(hCLDN18.2) (human) (UniProt P56856); assay: cell ELISA on fixed hCLDN18.2+cell, plateau reading
[3] = molecular target: 人CLDN18.2(hCLDN18.2) (human) (UniProt P56856); assay: cell ELISA, hybridoma supernatant on hCLDN18.2+cell

- EC50 [1]: 115 pM
- Emax higher than Ref [1]: > 36%
- fold better binding (EC50) than Ref [1]: > 1 fold
- Emax [2]: 1.92
B1: anti-hCLDN18.2鼠源抗体mab5b (antibody, human IgG1, kappa, V domains shown)
VH: QVQLQQSGAELIGPGTSVKVSCKASGYAFSNYLIEWVKQRPEQGLEWIGLINPGSGGTNYNEKFKGKATLTADKSSSTAYMQLSSLTSDDSAVYFCARVYYGNSFAYWGQGTLVTVSA
VL: DIVMTQSPSSLTVTAGEKVTMSCKSSQSLLNSGNQKNYLTWYQQKPGQPPKLLIYWASTRESGVPDRFTGSGSGTHFTLTISSVQAEDLAVYYCQNDYFYPFTFGSGTKLEKKR

- ELISA读值 [3]: 0.889
B2: 杂交瘤单克隆细胞株C13C1F1D3G6所分泌的抗体 (antibody, V domains shown)
VH: B1 VH
VL: DIVMTQSPSSLTVTAGEKVTMSCKSSQSLLNSGNQKNYLTWYQQKPGQPPKLLIYWASTRESGVPDRFTGSGSGTHFTLTISSVQAEDLAVYYCQNDYFYPFTFGSGTKLEKK
